This is an account of results in PMC9352680, “A comprehensive thermodynamic model for RNA binding by the Saccharomyces cerevisiae Pumilio protein PUF4”.

By Kd is commonly meant the free concentration of one partner at which half of the binding sites on the other are occupied at equilibrium, for simple one-to-one binding. Low values mean a tighter complex, high ones a looser complex.

T1: PUF4 RNA-binding domain (Saccharomyces cerevisiae, UniProt P25339 537-888)
T1 sequence: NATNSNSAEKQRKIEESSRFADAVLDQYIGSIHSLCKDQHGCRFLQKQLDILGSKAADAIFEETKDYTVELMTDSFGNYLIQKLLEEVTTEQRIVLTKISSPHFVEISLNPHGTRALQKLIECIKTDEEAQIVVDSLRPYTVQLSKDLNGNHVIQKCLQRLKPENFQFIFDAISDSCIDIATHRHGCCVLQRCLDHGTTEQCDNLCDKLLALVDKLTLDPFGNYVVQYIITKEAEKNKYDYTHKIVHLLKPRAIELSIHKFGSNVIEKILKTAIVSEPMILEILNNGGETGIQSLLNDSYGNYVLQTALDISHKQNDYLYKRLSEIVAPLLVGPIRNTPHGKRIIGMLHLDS

B1: Ie_S4_P3E.2_K3.1_C3.2_H3.1_[+1CTT]_A3.1_F3.1_T3.2 (ssRNA)
RNA: UUUGACAACUGAUCGUUCUUUCUCUUCUUGUAUAUAUAUUCUUUCUCGAUCAGUUGUCUUU
B2: Ie_S4_P3E.2_K3.1_C3.2_H3.1_[+3CCC]_A3.1_F3.1_T3.2 (ssRNA)
RNA: UUUGACAACUGAUCGUUCUUUCUCUUGUCCCAUAUAUAUUCUUUCUCGAUCAGUUGUCUUU
B3: Ie_S4_P3E.2_K3.1_C3.2_H3.1_[+2TTT]_A3.1_F3.1_T3.2 (ssRNA)
RNA: UUUGACAACUGAUCGUUCUUUCUCUUGUUUUAUAUAUAUUCUUUCUCGAUCAGUUGUCUUU
B4: Ie_S4_P3E.2_K3.1_C3.2_H3.1_[+2TCC]_A3.1_F3.1_T3.2 (ssRNA)
RNA: UUUGACAACUGAUCGUUCUUUCUCUUGUCCUAUAUAUAUUCUUUCUCGAUCAGUUGUCUUU
B5: Ie_S4_P3E.2_K3.1_C3.2_H3.1_[+2CCT]_A3.1_F3.1_T3.2 (ssRNA)
RNA: UUUGACAACUGAUCGUUCUUUCUCUUGCCUUAUAUAUAUUCUUUCUCGAUCAGUUGUCUUU
B6: Ie_S4_P3E.2_K3.1_C3.2_H3.1_[+3CTT]_A3.1_F3.1_T3.2 (ssRNA)
RNA: UUUGACAACUGAUCGUUCUUUCUCUUGUCUUAUAUAUAUUCUUUCUCGAUCAGUUGUCUUU
B7: Ie_S4_P3E.2_K3.1_C3.2_H3.1_[+1CCTCT]_A3.1_F3.1_T3.2 (ssRNA)
RNA: UUUGACAACUGAUCGUUCUUUCUCUUCCUCUGUAUAUAUAUUCUUUCUCGAUCAGUUGUCUUU
B8: Ie_S4_P3E.2_K3.1_C3.2_H3.1_[+3TCTCT]_A3.1_F3.1_T3.2 (ssRNA)
RNA: UUUGACAACUGAUCGUUCUUUCUCUUGUUCUCUAUAUAUAUUCUUUCUCGAUCAGUUGUCUUU
B9: Ie_S4_P3E.2_K3.1_C3.2_H3.1_[+2TCTCT]_A3.1_F3.1_T3.2 (ssRNA)
RNA: UUUGACAACUGAUCGUUCUUUCUCUUGUCUCUUAUAUAUAUUCUUUCUCGAUCAGUUGUCUUU
B10: Ie_S4_P3E.2_K3.1_C3.2_H3.1_[+1TTCCT]_A3.1_F3.1_T3.2 (ssRNA)
RNA: UUUGACAACUGAUCGUUCUUUCUCUUUUCCUGUAUAUAUAUUCUUUCUCGAUCAGUUGUCUUU
B11: Ie_S4_P3E.2_K3.1_C3.2_H3.1_[+3C]_A3.1_F3.1_T3.2 (ssRNA)
RNA: UUUGACAACUGAUCGUUCUUUCUCUUGUCAUAUAUAUUCUUUCUCGAUCAGUUGUCUUU
B12: Ib_S2_P3E.1_K3.1_C3.1_H3.1_[G2C]_A3.1_[T5C]_F3.1_T3.1 (ssRNA)
RNA: UUUGAUUAAUAUGAUAUCGUUCUUUCUUCUACAUAUUCUUUCUCGAUAUCAUAUUAAUCUUU
B13: Ib_S2_P3E.1_K3.1_C3.1_H3.1_[G2A]_A3.1_[T5C]_F3.1_T3.1 (ssRNA)
RNA: UUUGAUUAAUAUGAUAUCGUUCUUUCUUAUACAUAUUCUUUCUCGAUAUCAUAUUAAUCUUU
B14: Ie_S4_P3E.2_K3.1_C3.2_H3.1_[+1CCTC]_A3.1_F3.1_T3.2 (ssRNA)
RNA: UUUGACAACUGAUCGUUCUUUCUCUUCCUCGUAUAUAUAUUCUUUCUCGAUCAGUUGUCUUU
B15: Ie_S4_P3E.2_K3.1_C3.2_H3.1_[+3CCCT]_A3.1_F3.1_T3.2 (ssRNA)
RNA: UUUGACAACUGAUCGUUCUUUCUCUUGUCCCUAUAUAUAUUCUUUCUCGAUCAGUUGUCUUU
B16: Ie_S4_P3E.2_K3.1_C3.2_H3.1_[+1TTCC]_A3.1_F3.1_T3.2 (ssRNA)
RNA: UUUGACAACUGAUCGUUCUUUCUCUUUUCCGUAUAUAUAUUCUUUCUCGAUCAGUUGUCUUU
B17: Ie_S4_P3E.2_K3.1_C3.2_H3.1_[+3TTCC]_A3.1_F3.1_T3.2 (ssRNA)
RNA: UUUGACAACUGAUCGUUCUUUCUCUUGUUUCCAUAUAUAUUCUUUCUCGAUCAGUUGUCUUU
B18: Ie_S4_P3E.2_K3.1_C3.2_H3.1_[+2CT]_A3.1_F3.1_T3.2 (ssRNA)
RNA: UUUGACAACUGAUCGUUCUUUCUCUUGCUUAUAUAUAUUCUUUCUCGAUCAGUUGUCUUU

For this data set, the target named is T1, PUF4 RNA-binding domain. The data set is described as follows: Mg; RNA-MaP; 20 mM Na-HEPES pH 7.4, 30 mM KOAc, 0.75 mM MgCl2, 0.1% Tween-20, 5% glycerol, 0.1 mg/mL BSA, 2 mM DTT; 25 C; 0.0125-409.6 nM protein. The conditions noted are these: tags: N-His6-TEV cleaved; C-SNAP kept, Cy3B-labelled; label: tethered on chip by stalled RNA polymerase.
The molecule B1 gave a Kd of 0.982 nM. The molecule B2 displayed a Kd of 13.7 nM. To B3 belongs 16.5 nM; to B4, 10.8 nM; to B5, 41.1 nM.

B6 displayed a dissociation constant (Kd) of 11.4 nM. B7 displayed a Kd of 0.898 nM. Consider B8, for which the Kd worked out at 11.8 nM.

The molecule B9 returned a Kd of 23.6 nM. As for B10, the affinity, expressed as Kd, was 1.16 nM. In turn, B11 gave a Kd of 6.8 nM. The figure for B12 is greater than 2300 nM; for B13 it is 467 nM; for B14 it is 64 nM. B15 returned a Kd of 32.7 nM. B16 displayed a Kd of 45.7 nM. The molecule B17 registered a Kd of 23.4 nM. With B18, binding was put at a Kd of 60.8 nM.
